# From US20230265198A1 (TWIST BIOSCIENCE, published 2023)
# Changes are numbered by the printed parent chain.
# B1: NRP1-239 (antibody, IgG2, V domains shown)
# VH: EVQLLESGGGLVQPGGSLRLSCAASGFPFSNYTMGWVRQAPGKGLEWVSAISASGGSPYYADSVNGRFTISRDNSKNTLYLQMNSLRAEDTAVYYCARVGPGRSIAARQGFKRRNNWFDPWGQGTLVTVSS
# VL: DIQMTQSPSSLSTSVGDRVTITCRASQNIGSHLNWYQQKPGKAPKLLIYATSSLRSGVPSRFSGSGSGTDFTLTISSLQPEDFATYYCQQSYRIPLTFGGGTKVEIK
# B2: NRP1-248 (antibody, IgG2, V domains shown)
# VH: EVQLLESGGGLVQPGGSLRLSCAASGFTFSKYAMSWVRQAPGKGLEWVSSISTSGGSTYYADSVKGRFTISRDNSKNTLYLQMNSLRAEDTAVYYCARGLLRLKPERRVRTTYYYGMDVWGQGTLVTVSS
# VL: B1 VL with T13A, A25T, N28S, H32Y, T51S, R55Q, R93S, I94T, L96F, T97S
# B3: NRP1-257 (antibody, IgG2, V domains shown)
# VH: EVQLLESGGGLVQPGGSLRLSCAASGFTFSRYGMSWVRQAPGKGLEWVSTISGSGGSTSYADSVKGRFTISRDNSKNTLYLQMNSLRAEDTAVYYCARASHVDIPRRAPKRRHSFDSWGQGTLVTVSS
# VL: DIQMTQSPSSLSASVGDRVTITCRASQTISNYVNWYQQKPGKAPKLLIYAASSLHAGVPSRFSGSGSGTDFTLTISSLQPEDFATYYCQQGYSTPLTFGGGTKVEIK
# B4: NRP1-244 (antibody, IgG2, V domains shown)
# VH: EVQLLESGGGLVQPGGSLRLSCAASGFTFTSYGMSWVRQAPGKGLEWVSTISGSGGYTYYADSVKGRFTISRDNSKNTLYLQMNSLRAEDAAVYYCALWNRYGGLSYWGQGTLVTVSS
# VL: DIQMTQSPSSLSASVGDRVTITCRASQSIATYLHWYQQKPGKAPKLLIYGTSNLQSGVPSRFSGSGSGTDFTLTISSLQPEDFATYYCQQSYRTPGTFGGGTKVEIK
# B5: NRP1-264 (antibody, IgG2, V domains shown)
# VH: EVQLLESGGGLVQPGGSLRLSCAASGFTFRGYAMSWVRQAPGKGLEWVSTISGSGGVTYYADSVKGRFTISRDNSKNTLYLQMNSLRAEDTAVYYCARVRVDARPRGMMSRYYGMDVWGQGTLVTVSS
# VL: B4 VL with A30S, T31N, Y32R, H34N, T51A, N53S, S56P, Y92F, R93N, G96R
# B6: NRP1-252 (antibody, IgG2, V domains shown)
# VH: EVQLLESGGGLVQPGGSLRLSCAASGFTFRSLAVSWVRQAPGKGLEWVSTITGSGGATYYADSVKGRFTISRDNSKNTLYLQMNSLRAEDTAVYYCARGRRGMPTPDTVRKMSKSHLYFDSWGQGTLVTVSS
# VL: B4 VL with S26R, A30S, H34N, G50S, T51A, N53T, Q55E, G96W
# B7: NRP1-254 (antibody, IgG2, V domains shown)
# VH: EVQLLESGGGLVQPGGSLRLSCAASGFTFNTHAMSWVRQAPGKGLEWVSTISGSGGYTYYADSVKGRFTISRDNSKNTLYLQMNSLRAEDTAVYYCAKDLAAAGDYWGQGTLVTVSS
# VL: B4 VL with S28R, A30S, H34N, G50A, T51A, N53H, Y92H, R93T, G96L
# B8: NRP1-265 (antibody, IgG2, V domains shown)
# VH: EVQLLESGGGLVQPGGSLRLSCAASGFTFGKYAMTWVRQAPGKGLEWVSGISGSGGRTNYADSVKGRFTISRDNSKNTLYLQMNSLRAEDTAVYYCARDFVAWRGGFRRYYSYNGMDVWGQGTLVTVSS
# VL: B4 VL with S28Y, I29V, A30S, H34N, N53R, R93S, G96K
# B9: NRP1-258 (antibody, IgG2, V domains shown)
# VH: EVQLLESGGGLVQPGGSLRLSCAASGFRFGNYAMSWVRQAPGKGLEWVSAISGSAGRTYYADSVKGRFTISRDNSKNTLYLQMNSLRAEDTAVYYCARAPFQSRIGLAGTRRHKRDNFDQWGQGTLVTVSS
# VL: DIQMTQSPSSLSASVGDRVTITCRASQSIDNFLNWYQQKPGKAPKLLIYGASKLQRGVPSRFSGSGSGTDFTLTISSLQPEDFATYYCQQSYSSPPVTFGGGTKVEIK
# Target: T1, neuropilin-1 (NRP1) on HEK293 cells overexpressing NRP1 (UniProt O14786 22-923, limits assumed)
# T1 construct: whole, on cells
# Assay: flow cytometry, HEK293-NRP1 vs HEK293
row,100 nM FACS (MFI Ratio),Binder
1,0.2,B1
2,5,B2
3,0.9,B3
4,2.1,B4
5,3,B5
6,1,B6
7,2.8,B7
8,2.5,B8
9,0.7,B9
